Measurements taken from the supplement of paper PMC9170038.

How the values were obtained:
[1] = system: MS2 coat protein; experiment: apparent KD of MS2 coat protein, switch ON state; designed switch direction (-1 OFF switch, 1 ON switch): -1; higher = weaker reporter binding; conditions: FMN input: 0 or 200 uM; Eterna round: R93 (includes R88 designs)
Procedure, shortened: (§1)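 Designed RNA switches were transcribed on-chip from Illumina sequencing clusters. SNAP-549-labelled MS2 coat protein was titrated onto them in twofold steps from 0.7 or 1.5 nM to 3 µM in 100 mM Tris-HCl pH 7.5, 80 mM KCl, 4 mM MgCl2, either without or with constant ligand. Apparent KD reflects the per-design median of normalised cluster binding-curve fits.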

[2] = system: MS2 coat protein; experiment: apparent KD of MS2 coat protein, switch OFF state (with FMN for OFF switches, without FMN for ON switches); designed switch direction (-1 OFF switch, 1 ON switch): -1; higher = weaker reporter binding; conditions: FMN input: 0 or 200 uM; Eterna round: R93 (includes R88 designs)
Procedure, shortened: as §1

Sequence	apparent KD of MS2 coat protein [1] [µM]	apparent KD of MS2 coat protein [2] [µM]
AAAAUACAUGAGGAUCACCCAUGUCAGGAUAUGCUAAAAAAAAAAUUAAAAAAAAAAUGUAGAAGGGACUAAAA [Exclusion Z2]	0.0537	0.04
AAAAUACAUGAGGAUCACCCAUGUGAGGAUAUGCAAAACCCAUAUAAAAAGGGAAAAAGCAGAAGGUACAAAAA [wbt round 1 mod 14]	0.0186	0.0277
AAAAUACAUGAGGAUCACCCAUGUGAGGAUAUGCUAUGGAAAAAUAAAAUAAAACAUAGCAGAAGGCACAAAAA [Mat - Exclusion 1 - Eli mod - D41]	0.0343	0.0734
AAAAUACAUGAGGAUCACCCAUGUGAGGAUAUUAGAAAGGGAAUAAAAUAACCCAAACUAAGAAGGCACAAAAA [Ex 1 May 27]	0.0285	0.0353
AAAAUACAUGAGGAUCACCCAUGUGAGGAUAUUAGAAAGGGAAUAAAAUAACUUAAACUAAGAAGGCACAAAAA [Ex 1 May 28]	0.0182	0.0277
AAAAUACGAGGAUAUACAUGAGGAUCACCCAUGUCAAAAAAUGACUACACAAAAGAAAGUAGAAGGCGUAAAAG [Mat - Exclusion 3 - Mayanna mod - D127]	0.024	0.0418
AAAAUGUCAGGAUAUGCGAAGGCGUCUGACAGACGAGGAUUGCAGAAGGGACAUGAGGAUCACCCAUGUAAAAA [A Change in Energy (MS2 Riboswitch - Exclusion 4)]	0.0843	0.131
AAAAUGUGAGGAUAUCUGGAUAGGAAAAAGAAAACCUAUCCAGAGAAGGCACAUGAGGAUCACCCAUGUAAAAA [JL cataway mod 4]	0.121	0.114
AAAAUGUGAGGAUAUGUACGAAAAAAUAAAAAAAUAAAAGUACAGAAGGCACAUGAGGAUCACCCAUGUGUGGG [EX4 400: Minimal 13]	0.113	0.0761
AAAAUGUUAGGAUAUGUGAAGGCGUCUGAUAGACGAGGCCUGCAGAAGGAACAUGAGGAUCACCCAUGUAAAAA [Mod 3 of Nando's Round 1 Power Srip]	0.034	0.0256
AAACACGGAGGAUAUACACCAUACAAACCUCUAAACAAAAAACAUGAGGAUCACCCAUGUAGAAGGCCGAACAA [Default title]	0.0247	0.028
AAACCACAUGAGGAUCACCCAUGUCAGGAUAUGAACGAAAAUAAAUAAAAAUAAAAGUUCAGAAGGGACAAAAA [66%, Wbt, 13]	0.0423	0.0772
AAAGAUACAGGAUAUACAUGAGGAUCACCCAUGUGAGACCAAAAAUGGGAAAAAGAAAGUAGAAGGGUAUAAAA [Ex 3 May 36]	0.0399	0.0917
AAAGAUGCAGGAUAUACAUGAGGAUCACCCAUGUUAGACCAAAAAUGGGAAAAAGAAAGUAGAAGGGCAUAAAA [Ex 3 May 34]	0.0432	0.203
AAAGAUGCAGGAUAUACAUGAGGAUCACCCAUGUUAGACCUGAAAAAGGGAAAAGAAAGUAGAAGGGCAUAAUA [Ex 3 May 31]	0.0128	0.0115
AAAGGACGAGGAUAUACAUGAGGAUCACCCAUGUAAAAAACAUAGUAAAAGUGCUUGUGUAGAAGGCGUCCAAA [Meechl Ex3 2 R2 v9]	0.0781	0.195
AAAGGGUCAGGAUAUCGUUUAAUAAUAAAAUAAAUAAAGAACGAGAAGGGACAUGAGGAUCACCCAUGUAUAAA [May 76]	0.0653	0.0898
AAAGUACGAGGAUAUACAUAGAUACAGAUACAUGUAGACGUACAUGAGGAUCACCCAUGUAGAAGGCGUACAAG [Mat - Same state - Mayanna Mod - D116]	0.172	0.327
AAAUAGCAAGGAUAUACAUGAGGAUCACCCAUGUAAAAAUGGAAAGUAAAAGAAUAAAGUAGAAGGUGCAAAUA [Ex 3 Tesla 2]	0.0206	0.0369
AAAUAGCAAGGAUAUACAUGAGGAUCACCCAUGUAAGGAUGGUAAGUAUUAGAAGAAAGUAGAAGGUGCAAAUA [Ex 3 Tesla 5]	0.0336	0.0553
